These results are taken from patent US20220340678A1 (MURAL ONCOLOGY, published 2022).

First the molecules themselves.
T1: IL-12 p40 C177S variant (human, UniProt P29460 23-328)
T1 sequence: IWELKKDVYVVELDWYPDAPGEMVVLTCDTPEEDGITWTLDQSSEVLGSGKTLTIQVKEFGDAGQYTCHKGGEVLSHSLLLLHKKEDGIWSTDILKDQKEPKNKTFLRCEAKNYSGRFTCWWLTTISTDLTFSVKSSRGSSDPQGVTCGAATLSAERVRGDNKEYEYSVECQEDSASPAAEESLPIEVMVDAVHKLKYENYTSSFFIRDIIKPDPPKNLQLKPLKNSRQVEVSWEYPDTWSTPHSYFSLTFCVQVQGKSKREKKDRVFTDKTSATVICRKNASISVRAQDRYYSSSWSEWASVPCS

T2: IL-12 p40 C177F variant (human, UniProt P29460 23-328)
T2 sequence: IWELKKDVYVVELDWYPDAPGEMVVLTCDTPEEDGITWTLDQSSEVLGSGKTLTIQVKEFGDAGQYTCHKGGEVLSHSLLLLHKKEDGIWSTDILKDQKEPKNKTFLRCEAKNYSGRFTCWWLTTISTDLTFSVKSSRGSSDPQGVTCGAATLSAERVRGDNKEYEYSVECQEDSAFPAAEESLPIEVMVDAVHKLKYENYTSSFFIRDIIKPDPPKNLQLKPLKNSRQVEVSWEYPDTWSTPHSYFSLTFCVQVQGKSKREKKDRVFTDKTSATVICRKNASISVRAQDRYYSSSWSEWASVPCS

T3: Recombinant mouse uPAR-Fc (R&D Systems, Cat. No. 531-PA-100) (mouse, UniProt P35456 24-297, limits assumed)
T3 construct: not shown: Fc of the bought fusion (captured with the human antibody capture kit); not described
T3 sequence (looked up): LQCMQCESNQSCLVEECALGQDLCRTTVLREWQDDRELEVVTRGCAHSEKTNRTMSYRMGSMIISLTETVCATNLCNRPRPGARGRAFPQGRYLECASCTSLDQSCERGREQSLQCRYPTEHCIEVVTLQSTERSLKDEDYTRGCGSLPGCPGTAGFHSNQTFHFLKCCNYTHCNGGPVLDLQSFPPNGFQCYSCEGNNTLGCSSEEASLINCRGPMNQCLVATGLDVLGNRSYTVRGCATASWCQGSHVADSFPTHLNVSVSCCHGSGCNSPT

B1: Mouse cpIL-2:IL-2Ra (other)
chain: SSKSFQLEDAENFISNIRVTVVKLKGSDNTFECQFDDESATVVDFLRRWIAFCQSIISTSPQGGSSSTQQQQQHLEQLLMDLQELLSRMENYRNLKLPRMLTFKFYLPKQATELKDLQCLEDELGPLRHVLDLTQGSGGGSELCLYDPPEVPNATFKALSYKNGTILNCECKRGFRRLKELVYMRCLGNSWSSNCQCTSNSHDKSRKQVTAQLEHQKEQQTTTDMQKPTQSMHQENLTGHCREPPPWKHEDSKRIYHFVEGQSVHYECIPGYKALQRGPAISICKMKCGKTGWTQPQLTCVD
B2: Mouse uPA-ATF:Mouse cpIL-2:IL-2Ra:His6 (other)
chain: GSVLGAPDESNCGCQNGGVCVSYKYFSRIRRCSCPRKFQGEHCEIDASKTCYHGNGDSYRGKANTDTKGRPCLAWNAPAVLQKPYNAHRPDAISLGLGKHNYCRNPDNQKRPWCYVQIGLRQFVQECMVHDCGGSGGSKSFQLEDAENFISNIRVTVVKLKGSDNTFECQFDDESATVVDFLRRWIAFCQSIISTSPQGGSSSTQQQQQHLEQLLMDLQELLSRMENYRNLKLPRMLTFKFYLPKQATELKDLQCLEDELGPLRHVLDLTQGSGGGSELCLYDPPEVPNATFKALSYKNGTILNCECKRGFRRLKELVYMRCLGNSWSSNCQCTSNSHDKSRKQVTAQLEHQKEQQTTTDMQKPTQSMHQENLTGHCREPPPWKHEDSKRIYHFVEGQSVHYECIPGYKALQRGPAISICKMKCGKTGWTQPQLTCVDHHHHHH
B3: IL-12 p35 C74D variant (other)
chain: RNLPVATPDPGMFPCLHHSQNLLRAVSNMLQKARQTLEFYPCTSEEIDHEDITKDKTSTVEACLPLELTKNESDLNSRETSFITNGSCLASRKTSFMMALCLSSIYEDLKMYQVEFKTMNAKLLMDPKRQIFLDQNMLAVIDELMQALNFNSETVPQKSSLEEPDFYKTKIKLCILLHAFRIRAVTIDRVMSYLNAS
B4: M1-Chimeric (antibody, V domains shown)
VH: EVQLQQSGAELVRPGASVKLSCTASGFNIKDEYINWVKQRPEQGLEWIGWIDPENGDTEYASKFQGKATITADTSSNTAYLQLSSLTSEDTAVYYCTGGNYVGWFPYWGQGTLVTVSA
VL: QIVLTQSPAIMSASPGEKVTMTCSASSSVSYMHWYQQKSGTSPKRWLYDTSKLASGVPARFSGSGSGTSYSLTISSMEAEDAATYYCQQWSSNPPYTFGGGTKLEIK
B5: M8-Chimeric (antibody, V domains shown)
VH: QIQLVQSGPELKKPGETVKISCKASGNTFTDYGMNWVKQSPGKGLKWMGWINTNTGEPTYADDFKGRFAFSLETSASTAYLQINNLKNEDMATYFCAHYSFDYWGQGTTLTVSS
VL: DIQMTQSPASLSVSVGQTVTITCRTSENIYSNLAWYQQKPGKSPQLLVYAATNLADGVPSRFSGSGSGTQYSLKINSLQSEDFGSYYCQHFWGTPWTFGGGTKLEIK
B6: M1-H3/L4 (antibody, V domains shown)
VH: EVQLQQSGAEVKKPGATVKLSCTASGFNIKDEYINWVKQRPGQGLEWIGWIDPENGDTEYASKFQGRATITADTSTDTAYLELSSLRSEDTAVYYCTGGNYVGWFPYWGQGTLVTVSS
VL: QIVLTQSPATLSASPGERVTMSCSASSSVSYMHWYQQKPGTSPRRWLYDTSKLASGVPARFSGSGSGTDYTLTISSLEPEDFATYYCQQWSSNPPYTFGQGTKLEIKT
notes: also called humanized M1
B7: M1-H1/L4 (antibody, V domains shown)
VH: EVQLVQSGAEVKKPGATVKISCTASGFNIKDEYINWVKQRPGKGLEWIGWIDPENGDTEYASKFQGRVTITADTSTDTAYLELSSLRSEDTAVYYCTGGNYVGWFPYWGQGTLVTVSS
VL: QIVLTQSPATLSASPGERVTMSCSASSSVSYMHWYQQKPGTSPRRWLYDTSKLASGVPARFSGSGSGTDYTLTISSLEPEDFATYYCQQWSSNPPYTFGQGTKLEIKT
notes: also called humanized M1
B8: M1-H3/L1 (antibody, V domains shown)
VH: EVQLQQSGAEVKKPGATVKLSCTASGFNIKDEYINWVKQRPGQGLEWIGWIDPENGDTEYASKFQGRATITADTSTDTAYLELSSLRSEDTAVYYCTGGNYVGWFPYWGQGTLVTVSS
VL: EIVLTQSPATLSLSPGERATLSCSASSSVSYMHWYQQKPGTSPRRWIYDTSKLASGVPARFSGSGSGTDFTLTISSLEPEDFAVYYCQQWSSNPPYTFGQGTKLEIKT
notes: also called humanized M1
B9: M8-H3/L2B10 (antibody)
heavy: not shown
light: DIQMTQSPSSLSASVGDTVTITCRTSENIYSNLAWYQQKPGKSPQLLVYAATNLADGVPSRFSGSGSGTDYTLTISSLQPEDFGTYYCQHFWGTPWTFGGGTKVEIKTVAAPSVFIFPPSDEQLKSGTASVVCLLNNFYPREAKVQWKVDNALQSGNSQESVTEQDSKDSTYSLSSTLTLSKADYEKHKVYACEVTHQGLSSPVTKSFNRGEC
notes: also called humanized M8
B10: M8-H3/L2B5 (antibody)
heavy: not shown
light: DIQMTQSPSSLSASVGDRVTITCRTSENIYSNLAWYQQKPGKSPQLLVYAATNLADGVPSRFSGSGSGTDYTLTISSLQPEDFGTYYCQHFWGTPWTFGGGTKVEIKTVAAPSVFIFPPSDEQLKSGTASVVCLLNNFYPREAKVQWKVDNALQSGNSQESVTEQDSKDSTYSLSSTLTLSKADYEKHKVYACEVTHQGLSSPVTKSFNRGEC
notes: also called humanized M8
B11: M8-H3/L2B2 (antibody, V domains shown)
VH: QIQLVQSGSELKKPGASVKISCKASGTTFTDYGMNWVKQSPGKGLKWMGWINTNTGEPTYAEDFKGRFVFSLDTSVSTAYLQISSLKAEDTATYFCAHYSFDYWGQGTLLTVSS
VL: DIQMTQSPSSLSASVGDTVTITCRTSENIYSNLAWYQQKPGKSPQLLVYAATNLADGVPSRFSGSGSGTQYTLKISSLQPEDFATYYCQHFWGTPWTFGGGTKVEIKT
notes: also called humanized M8
B12: M43-Chimeric (antibody, V domains shown)
VH: QVQLQQSGAELARPGASVNLSCKASGYTFTSYGISWVKQRTGQGLEWIGEIYPRSGNTYYNEKFKGKATLTADKSSRTAYMELRSLTSEDSAVYFCAGKDYGSTYADYWGQGTTLTVSS
VL: QIVLTQSPAIMSASPGEKVTMTCSASSSVSSRYLHWYQQKSGASPKLWIYGTSNLASGVPARFSGSGSGTSYSLTINSVEAEDAATYYCQQYHSDPLTFGAGTKLELK
B13: M43-H1bm5/L4 (antibody, V domains shown)
VH: QVQLVQSGAEVAKPGASVNLNCKASGYTFTSYGISWVRQRTGQGLEWIGEIYPRSGNTYYNEKFKGKVTLTTDKSTRTAYMELRSLTSEDTAVYYCAGKDYGSTYADYWGQGTTLTVSS
VL: QIVLTQSPATLSASPGERVTMTCSASSSVSSRYLHWYQQKSGASPRLWIYGTSNLASGVPARFSGSGPGTSYTLTISSVEPEDAATYYCQQYHSDPLTFGQGTKLELKT
notes: also called humanized M43
B14: M43-H4bm5/L4 (antibody, V domains shown)
VH: QVQLQQSGAEVAKPGASVNLNCKASGYTFTSYGISWVRQRTGQGLEWIGEIYPRSGNTYYNEKFKGKATLTADKSTRTAYMELRSLTSEDTAVYFCAGKDYGSTYADYWGQGTTLTVSS
VL: QIVLTQSPATLSASPGERVTMTCSASSSVSSRYLHWYQQKSGASPRLWIYGTSNLASGVPARFSGSGPGTSYTLTISSVEPEDAATYYCQQYHSDPLTFGQGTKLELKT
notes: also called humanized M43

One experiment addresses IL-2/IL-15 receptor on primary mouse splenocytes (mouse). Kind of experiment: cell-based or functional assay.
With B1, the “pSTAT5 EC50, mouse NK cells” value is 19 nM; the “pSTAT5 EC50, mouse Tregs” value was determined as 22 nM; the “pSTAT5 EC50, mouse memory CD8 T cells” value worked out at 23 nM.

For B2, the “pSTAT5 EC50, mouse NK cells” value turned out to be 35 nM; the “pSTAT5 EC50, mouse Tregs” value was found to be 22 nM; the “pSTAT5 EC50, mouse memory CD8 T cells” value was 38 nM.

The target of a further experiment is T1, IL-12 p40 C177S variant. Nature of the experiment: BLI (Octet), p35 C74 variant against p40 C177S. (BLI is a label-free optical method that tracks binding on a fibre tip over time.)
The molecule B3 yielded a Kd of 57.1 nM, an off-rate (koff) of 0.001 s⁻¹ and an on-rate (kon) of 17600 M⁻¹ s⁻¹.

A further experiment deals with T2, IL-12 p40 C177F variant. Kind of experiment: BLI (Octet), p35 C74 variant against p40 C177F.
The molecule B3 displayed an equilibrium dissociation constant (Kd) of 60.2 nM, an off-rate (koff) of 0.000719 s⁻¹ and an association rate constant (kon) of 11900 M⁻¹ s⁻¹.

A further experiment addresses T4, histidine-tagged human uPAR (Sino#10925-H08H) (human, UniProt Q03405 23-303).
T4 construct: also called uPAR-His
Kind of experiment: BLI (Octet), antibody on anti-human Fc sensor, uPAR from 50 nM.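 Further: antibodies captured at 10 µg/mL on anti-human Fc biosensors, with uPAR as analyte in a twofold dilution series from 50 nM downward.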
In turn, B4 had a Kd of 1.11 nM, a dissociation rate constant (koff) of 0.000701 s⁻¹ and an on-rate constant (kon) of 629000 M⁻¹ s⁻¹.

Regarding B5, the Kd was found to be 1.79 nM, the off-rate constant (koff) was 0.00049 s⁻¹ and the kon worked out at 273000 M⁻¹ s⁻¹.

For the molecule B6, binding was put at a Kd of 1.3 nM, the koff was 0.000893 s⁻¹ and the on-rate constant (kon) was 686000 M⁻¹ s⁻¹.

For the molecule B7, the Kd came out at 1.48 nM, the koff came to 0.000986 s⁻¹ and the kon turned out to be 665000 M⁻¹ s⁻¹.

As to B8, the dissociation constant Kd was 1.64 nM, the off-rate constant (koff) turned out to be 0.00111 s⁻¹ and the on-rate (kon) turned out to be 677000 M⁻¹ s⁻¹.

Molecule B9 yielded a Kd of 2.35 nM, an off-rate constant (koff) of 0.000477 s⁻¹ and an on-rate (kon) of 203000 M⁻¹ s⁻¹.

Consider B10, for which the affinity, expressed as Kd, was 1.65 nM; the off-rate (koff) was determined as 0.000351 s⁻¹; the on-rate constant (kon) was determined as 213000 M⁻¹ s⁻¹.

Regarding B11, the Kd turned out to be 1.74 nM, the koff came to 0.000427 s⁻¹ and the association rate constant (kon) is 246000 M⁻¹ s⁻¹.

In turn, B12 showed a dissociation constant (Kd) of 15.1 nM, a koff of 0.00606 s⁻¹ and a kon of 402000 M⁻¹ s⁻¹.

As to B13, the Kd is 15.9 nM, the dissociation rate constant (koff) was found to be 0.00658 s⁻¹ and the on-rate constant (kon) stood at 415000 M⁻¹ s⁻¹.

Regarding B14, the Kd is 14.7 nM, the off-rate constant (koff) was 0.00666 s⁻¹ and the association rate constant (kon) was determined as 454000 M⁻¹ s⁻¹.

The target of a further experiment is T3, Recombinant mouse uPAR-Fc (R&D Systems, …). Kind of experiment: SPR (Biacore), mouse uPAR-Fc captured on anti-human antibody chip.
For B2, the dissociation constant Kd is 0.14 nM, the off-rate (koff) was found to be 0.0002 s⁻¹ and the association rate constant (kon) was found to be 1.4e+06 M⁻¹ s⁻¹.

The Kd is the free concentration of one partner at which half of the binding sites on the other are occupied at equilibrium, for simple one-to-one binding. One may read the koff as a measure of how fast the partners let go of each other. The kon is the rate constant with which the complex forms.
